In data set [1] the target is T1, HipA mutant D309Q (Escherichia coli, UniProt P23874 1-440, D309Q).
T1 sequence: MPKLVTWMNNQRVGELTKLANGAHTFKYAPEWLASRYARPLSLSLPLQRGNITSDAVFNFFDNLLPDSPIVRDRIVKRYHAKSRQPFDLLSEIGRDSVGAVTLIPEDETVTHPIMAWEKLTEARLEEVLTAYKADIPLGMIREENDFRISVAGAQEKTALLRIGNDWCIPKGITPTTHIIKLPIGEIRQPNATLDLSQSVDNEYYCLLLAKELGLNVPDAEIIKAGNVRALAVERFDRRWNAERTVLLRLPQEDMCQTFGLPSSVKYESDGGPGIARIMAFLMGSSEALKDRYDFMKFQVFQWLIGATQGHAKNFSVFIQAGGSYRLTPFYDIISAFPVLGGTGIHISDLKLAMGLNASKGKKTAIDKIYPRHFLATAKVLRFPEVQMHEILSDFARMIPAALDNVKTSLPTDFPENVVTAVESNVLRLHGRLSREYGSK
The data set is described as follows: fluorescence polarisation. On the technique in general: In fluorescence polarisation assays a small probe gives low polarisation when free and higher when bound to something large.

Data set [2] deals with the molecule itself. Nature of the data set: crystal structure.
Data set [3] concerns the target T1, HipA mutant D309Q. Nature of the data set: crystal structure.

Consider two molecules from article PMC2764309 (Science (New York, N.Y.), 2009).

B1: EF-Tu peptide IREGGRTVGA (peptide)
peptide: IREGGRTVGA
As usually defined, the Kd is the free concentration of one partner at which half of the binding sites on the other are occupied at equilibrium, for simple one-to-one binding. Read a low Kd as a tighter complex. Molecule B1 showed a Kd in data set [1] of 15 ± 5 µM.

B2: HipB (natural protein)
chain: MMSFQKIYSPTQLANAMKLVRQQNGWTQSELAKKIGIKQATISNFENNPDNTTLTTFFKILQSLELSMTLCDAKNASPESTEQQNLEW
By stoichiometry N is commonly meant the number of molecules, sites or subunits per partner or assembly. In the case of B2, in data set [2], the “stoichiometry N” value stood at 2. In addition, in data set [3], the binding result is “binds”.
